# Reference: US11180770B2, “HPPD variants and methods of use” (BASF Agricultural Solutions Seed US LLC, priority 2017, dated 2021)
# Changes are numbered by the printed parent chain.
# B1: 60 (protein)
# chain: MADLYENPMGLMGFEFIEFASPTPGTLEPIFEIMGFTKVATHRSKNVHLYRQGEINLILNNEPNSIASYFAAEHGPSVCGMAFRVKDSQKAYNRALELGAQPIHIDTGPMELNLPAIKGIGGAPLYLIDRFGEGSSIYDIDFVYLEGVERNPVGAGLKVIDHLTHNVYRGRIDYWANFYEKLFNFREARYFDIKGEYTGLTSKAMSAPDGMIRIPLNEESSKGAGQIEEFLMQFNGEGIQHVAFLTDDLVKTWDALKKIGMRFMTAPADSYYEMLEGRLPDHGEPVDQLQARGILLDGSSVEGDKRLLLQIFSETLMGPVFFEFIQRKGDDGFGPDSFKVLFESKERDQVRRGVLTAD
# modifications: mutant HPPD polypeptide
# B2: 63 (protein)
# chain: B1 chain with I172M, D173V, R213K, P215A, D336H, S344Q, K345I
# modifications: mutant HPPD polypeptide
# B3: 64 (protein)
# chain: B1 chain with I172M, D173V, D336H, S344Q, K345M
# modifications: mutant HPPD polypeptide
# B4: 3 (protein)
# chain: B1 chain with I172M, D173V, S270T, K345I
# modifications: mutant HPPD polypeptide
# B5: 9 (protein)
# chain: B1 chain with I172M, D173V, S270T, K345V
# modifications: mutant HPPD polypeptide
# B6: 68 (protein)
# chain: B1 chain with I172M, D173V, T315Q, D336H, S344Q, K345M
# modifications: mutant HPPD polypeptide
# B7: 11 (protein)
# chain: B1 chain with I172M, D173V, A268P, S270T, K345V
# modifications: mutant HPPD polypeptide
# B8: 10 (protein)
# chain: B1 chain with I172M, D173V, A268G, S270T, K345V
# modifications: mutant HPPD polypeptide
# B9: 7 (protein)
# chain: B1 chain with I172M, D173V, A268G, S270N, K345I
# modifications: mutant HPPD polypeptide
# B10: 66 (protein)
# chain: B1 chain with I172M, D173V, R213K, D336H, S344Q, K345M
# modifications: mutant HPPD polypeptide
# B11: 4 (protein)
# chain: B1 chain with I172M, D173V, A268G, S270T, K345I
# modifications: mutant HPPD polypeptide
# B12: 67 (protein)
# chain: B1 chain with I172M, D173V, R213K, T315R, D336H, S344Q, K345M
# modifications: mutant HPPD polypeptide
# B13: 5 (protein)
# chain: B1 chain with I172M, D173V, A268P, S270T, K345I
# modifications: mutant HPPD polypeptide
# B14: 61 (protein)
# chain: B1 chain with I172M, D173V, D336H, K345I
# modifications: mutant HPPD polypeptide
# B15: 6 (protein)
# chain: B1 chain with I172M, D173V, S270N, K345I
# modifications: mutant HPPD polypeptide
# B16: 8 (protein)
# chain: B1 chain with I172M, D173V, A268P, S270N, K345I
# modifications: mutant HPPD polypeptide
# B17: 65 (protein)
# chain: B1 chain with I172M, D173V, T315R, D336H, K345M
# modifications: mutant HPPD polypeptide
# B18: 12 (protein)
# chain: B1 chain with I172M, D173V, S270N, K345V
# modifications: mutant HPPD polypeptide
# B19: 69 (protein)
# chain: B1 chain with I172M, D173V, T315R, D336H, S344Q, K345M
# modifications: mutant HPPD polypeptide
# B20: 70 (protein)
# chain: B1 chain with I172M, D173V, R213K, T315Q, D336H, S344Q, K345M
# modifications: mutant HPPD polypeptide
# B21: 62 (protein)
# chain: B1 chain with I172M, D173V, D336H, K345M
# modifications: mutant HPPD polypeptide
# B22: 14 (protein)
# chain: B1 chain with I172M, D173V, A268P, S270N, K345V
# modifications: mutant HPPD polypeptide
# B23: 2 (protein)
# chain: B1 chain with I172M, D173V, A268P, S270T, D336W, S337N, K339A, V340Q, K345I
# modifications: mutant HPPD polypeptide
# B24: 13 (protein)
# chain: B1 chain with I172M, D173V, A268G, S270N, K345V
# modifications: mutant HPPD polypeptide
# B25: 15 (protein)
# chain: B1 chain with I172M, D173V, A268R, S270N, K345V
# modifications: mutant HPPD polypeptide
# B26: 71 (protein)
# chain: B1 chain with I172M, D173V, P215L, A268P, S270T, D336F, S337N, V340E, K345I
# modifications: mutant HPPD polypeptide
# System: HPPD polypeptides
# Experiment: coupled HPPD activity assay: turnover and residual turnover in crude extracts
# Assay type: biochemical, Pseudomonas fluorescens
# Conditions: 100 μM Cmpd. 1; signal change with inhibitor divided by signal change without inhibitor
row,Molecule,Residual turnover [%]
1,B1,45
2,B2,68
3,B3,47
4,B4,64
5,B5,52
6,B6,64
7,B7,44
8,B8,56
9,B9,42
10,B10,56
11,B11,44
12,B12,64
13,B13,38
14,B14,40
15,B15,50
16,B16,50
17,B17,54
18,B18,50
19,B19,66
20,B20,71
21,B21,37
22,B22,33

# Same assay, conditions: absence of Cmpd. 1; high substrate concentration; kinetic changes in absorbance (OD) at 320 nm, 30 min
row,Molecule,Turnover
1,B1,0.103
2,B2,0.23
3,B23,0.060
4,B3,0.242
5,B4,0.096
6,B5,0.102
7,B6,0.346
8,B7,0.160
9,B8,0.125
10,B9,0.149
11,B10,0.336
12,B11,0.126
13,B12,0.335
14,B13,0.157
15,B14,0.229
16,B15,0.165
17,B24,0.024
18,B16,0.107
19,B17,0.327
20,B18,0.115
21,B19,0.36
22,B20,0.338
23,B25,0.040
24,B21,0.308
25,B22,0.188
26,B26,0.044

# Same assay, conditions: presence of 100 μM Cmpd. 1; high substrate concentration; changes in absorbance (OD) at 320 nm
row,Molecule,Residual turnover
1,B1,0.046
2,B2,0.156
3,B23,0.026
4,B3,0.114
5,B4,0.061
6,B5,0.053
7,B6,0.223
8,B7,0.071
9,B8,0.070
10,B9,0.063
11,B10,0.187
12,B11,0.055
13,B12,0.215
14,B13,0.059
15,B14,0.091
16,B15,0.082
17,B16,0.054
18,B17,0.177
19,B18,0.058
20,B19,0.237
21,B20,0.240
22,B25,0.030
23,B21,0.115
24,B22,0.062
25,B26,0.022
